Source: patent US4605614A, “Method for measuring plasmin” (Nitto Boseki Co., Ltd., priority 1981, dated 1986)

Key:
Assay in all cases: Km, Vmax and Vmax/Km of substrates for plasmin (pig)
Assay type in all cases: biochemical, Porcine (pig)
[1] = substrate: CC(C)OC(=O)C[C@@H](N)C(=O)N[C@@H](Cc1ccccc1)C(=O)N[C@@H](CCCCN)C(=O)Nc1ccc(O)c(C(=O)O)c1; details: other: TABLE 2, CHA substrates, plasmin (pig), 2,6-xylenol 615 nm
Text: (§1) The substrates produced by the above examples were used in the measurement of plasmin as follows: The principle of this measurement comprises quantitatively analyzing the decomposition product p-nitroaniline or 3-carboxy-4-hydroxyaniline produced by the enzymatic hydrolysis, by measuring the absorbance (O.D.) directly at 405 nm in the case of p-nitroaniline and, in the case of the 3-carboxy-4-hydroxyaniline at 615 nm after condensing it with 2,6-xylenol in the presence of an oxidant to develop a color.
(§2) For the measurements of these constants, the following method is adopted:
(§3) The enzyme and the substrate are mixed in a buffer solution and subjected to the hydrolysis for 30 seconds. The concentration of the substrate [S] is changed and the enzyme concentration is maintained constant. By measuring the absorbance (O.D.), the initial velocity of the hydrolysis can be determined. Where 1/V is plotted as a function of 1/[S], there is obtained a Lineweaver and Burk's linea from which graph the Vmax and Km can be determined.

[2] = substrate: Cc1ccc(C(=O)NCCCC[C@@H](N)C(=O)N[C@@H](Cc2ccccc2)C(=O)N[C@@H](CCCCN)C(=O)Nc2ccc(O)c(C(=O)O)c2)cc1; details: other: TABLE 2, CHA substrates, plasmin (pig), 2,6-xylenol 615 nm
Text: as §1, §2, §3

[3] = substrate: NCCCC[C@H](NC(=O)[C@H](Cc1ccccc1)NC(=O)[C@H](N)CCC(=O)NCCCc1ccccc1)C(=O)Nc1ccc([N+](=O)[O-])cc1; details: other: TABLE 1, PNA substrates, plasmin (pig), 405 nm
Text: as §1, §2, §3

[4] = substrate: CC(C)C[C@H](NC(=O)[C@H](N)C(C)C)C(=O)N[C@@H](CCCCN)C(=O)Nc1ccc(O)c(C(=O)O)c1; details: other: TABLE 2, CHA substrates, plasmin (pig), 2,6-xylenol 615 nm
Text: as §1, §2, §3

[5] = substrate: NCCCC[C@H](NC(=O)[C@H](Cc1ccccc1)NC(=O)[C@H](N)CCCCNC(=O)c1ccccc1)C(=O)Nc1ccc(O)c(C(=O)O)c1; details: other: TABLE 2, CHA substrates, plasmin (pig), 2,6-xylenol 615 nm
Text: as §1, §2, §3

[6] = substrate: NCCCC[C@H](NC(=O)[C@H](Cc1ccccc1)NC(=O)[C@H](N)CCC(=O)NCCc1ccccc1)C(=O)Nc1ccc([N+](=O)[O-])cc1; details: other: TABLE 1, PNA substrates, plasmin (pig), 405 nm
Text: as §1, §2, §3

[7] = substrate: Cc1ccc(CCOC(=O)CC[C@@H](N)C(=O)N[C@@H](Cc2ccccc2)C(=O)N[C@@H](CCCCN)C(=O)Nc2ccc([N+](=O)[O-])cc2)cc1; details: other: TABLE 1, PNA substrates, plasmin (pig), 405 nm
Text: as §1, §2, §3

[8] = substrate: Cc1ccc(S(=O)(=O)NCCCC[C@H](N)C(=O)N[C@@H](Cc2ccccc2)C(=O)N[C@@H](CCCCN)C(=O)Nc2ccc(O)c(C(=O)O)c2)cc1; details: other: TABLE 2, CHA substrates, plasmin (pig), 2,6-xylenol 615 nm
Text: as §1, §2, §3

[9] = substrate: CC(C)[C@@H](N)C(=O)N[C@@H](Cc1ccccc1)C(=O)N[C@@H](CCCCN)C(=O)Nc1ccc(O)c(C(=O)O)c1; details: other: TABLE 2, CHA substrates, plasmin (pig), 2,6-xylenol 615 nm
Text: as §1, §2, §3

[10] = substrate: NCCCC[C@H](NC(=O)[C@H](Cc1ccccc1)NC(=O)[C@H](N)CCC(=O)OCCc1ccccc1)C(=O)Nc1ccc([N+](=O)[O-])cc1; details: other: TABLE 1, PNA substrates, plasmin (pig), 405 nm
Text: as §1, §2, §3

[11] = substrate: Cc1ccc(S(=O)(=O)NCCCC[C@@H](N)C(=O)N[C@@H](Cc2ccccc2)C(=O)N[C@@H](CCCCN)C(=O)Nc2ccc(O)c(C(=O)O)c2)cc1; details: other: TABLE 2, CHA substrates, plasmin (pig), 2,6-xylenol 615 nm
Text: as §1, §2, §3

[12] = substrate: NCCCC[C@H](NC(=O)[C@H](Cc1ccccc1)NC(=O)[C@H](N)CCCCNS(=O)(=O)c1ccc2ccccc2c1)C(=O)Nc1ccc(O)c(C(=O)O)c1; details: other: TABLE 2, CHA substrates, plasmin (pig), 2,6-xylenol 615 nm
Text: as §1, §2, §3

[13] = substrate: NCCCC[C@H](NC(=O)[C@H](Cc1ccccc1)NC(=O)[C@H](N)CCC(=O)NCCc1ccccc1)C(=O)Nc1ccc(O)c(C(=O)O)c1; details: other: TABLE 2, CHA substrates, plasmin (pig), 2,6-xylenol 615 nm
Text: as §1, §2, §3

[14] = substrate: NCCCC[C@H](NC(=O)[C@H](Cc1ccccc1)NC(=O)[C@H](N)CCCCNC(=O)Cc1ccccc1)C(=O)Nc1ccc(O)c(C(=O)O)c1; details: other: TABLE 2, CHA substrates, plasmin (pig), 2,6-xylenol 615 nm
Text: as §1, §2, §3

[15] = substrate: Cc1ccc(CCNC(=O)CC[C@@H](N)C(=O)N[C@@H](Cc2ccccc2)C(=O)N[C@@H](CCCCN)C(=O)Nc2ccc([N+](=O)[O-])cc2)cc1; details: other: TABLE 1, PNA substrates, plasmin (pig), 405 nm
Text: as §1, §2, §3

[16] = substrate: NCCCC[C@H](NC(=O)[C@H](Cc1ccccc1)NC(=O)[C@H](N)CCCCNC(=O)OCc1ccccc1)C(=O)Nc1ccc(O)c(C(=O)O)c1; details: other: TABLE 2, CHA substrates, plasmin (pig), 2,6-xylenol 615 nm
Text: as §1, §2, §3

[17] = substrate: Cc1ccc(S(=O)(=O)Oc2ccc(C[C@@H](N)C(=O)N[C@@H](CC(C)C)C(=O)N[C@@H](CCCCN)C(=O)Nc3ccc(O)c(C(=O)O)c3)cc2)cc1; details: other: TABLE 2, CHA substrates, plasmin (pig), 2,6-xylenol 615 nm
Text: as §1, §2, §3

[18] = substrate: NCCCC[C@H](NC(=O)[C@H](Cc1ccccc1)NC(=O)[C@H](N)CCCCNS(=O)(=O)c1ccccc1)C(=O)Nc1ccc(O)c(C(=O)O)c1; details: other: TABLE 2, CHA substrates, plasmin (pig), 2,6-xylenol 615 nm
Text: as §1, §2, §3

[19] = substrate: NCCCC[C@H](NC(=O)[C@H](Cc1ccccc1)NC(=O)[C@H](N)CC(=O)OC1CCCCC1)C(=O)Nc1ccc(O)c(C(=O)O)c1; details: other: TABLE 2, CHA substrates, plasmin (pig), 2,6-xylenol 615 nm
Text: as §1, §2, §3

[20] = substrate: NCCCC[C@H](NC(=O)[C@H](Cc1ccccc1)NC(=O)[C@H](N)CCCCNC(=O)c1ccc2ccccc2c1)C(=O)Nc1ccc(O)c(C(=O)O)c1; details: other: TABLE 2, CHA substrates, plasmin (pig), 2,6-xylenol 615 nm
Text: as §1, §2, §3

[21] = substrate: Cc1ccc(S(=O)(=O)NCCC[C@@H](N)C(=O)N[C@@H](Cc2ccccc2)C(=O)N[C@@H](CCCCN)C(=O)Nc2ccc(O)c(C(=O)O)c2)cc1; details: other: TABLE 2, CHA substrates, plasmin (pig), 2,6-xylenol 615 nm
Text: as §1, §2, §3

B1: plasmin (pig) (Sus scrofa) (protein)
chain: RIYLSECKTGNGKNYRGTTSKTKSGVICQKWSVSSPHIPKYSPEKFPLAGLEENYCRNPDNDEKGPWCYTTDPETRFDYCDIPECEDECMHCSGEHYEGKISKTMSGIECQSWGSQSPHAHGYLPSKFPNKNLKMNYCRNPDGEPRPWCFTTDPNKRWEFCDIPRCTTPPPTSGPTYQCLKGRGENYRGTVSVTASGHTCQRWSAQSPHKHNRTPENFPCKNLEENYCRNPDGETAPWCYTTDSEVRWDYCKIPSCGSSTTSTEYLDAPVPPEQTPVAQDCYRGNGESYRGTSSTTITGRKCQSWVSMTPHRHEKTPGNFPNAGLTMNYCRNPDADKSPWCYTTDPRVRWEYCNLKKCSETEQQVTNFPAIAQVPSVEDLSEDCMFGNGKRYRGKRATTVAGVPCQEWAAQEPHRHSIFTPETNPRAGLEKNYCRNPDGDDNGPWCYTTNPQKLFDYCDVPQCVTSSFDCGKPKVEPKKCPARVVGGCVSIPHSWPWQISLRHRYGGHFCGGTLISPEWVLTAKHCLEKSSSPSSYKVILGAHEEYHLGEGVQEIDVSKLFKEPSEADIALLKLSSPAIITDKVIPACLPTPNYVVADRTACYITGWGETKGTYGAGLLKEARLPVIENKVCNRYEYLGGKVSPNELCAGHLAGGIDSCQGDSGGPLVCFEKDKYILQGVTSWGLGCALPNKPGVYVRVSRFVTWIEEIMRRN
Km [1]: 352 µM | Km [2]: 76.2 µM | Km [3]: 39.3 µM | Km [4]: 3210 µM | Km [5]: 334 µM | Km [6]: 27.9 µM | Km [7]: 42.8 µM | Km [8]: 292 µM | Km [9]: 631 µM | Km [10]: 31.1 µM | Km [11]: 206 µM | Km [12]: 179 µM | Km [13]: 397 µM | Km [14]: 357 µM | Km [15]: 39.4 µM | Km [16]: 496 µM | Km [17]: 1440 µM | Km [18]: 532 µM | Km [19]: 379 µM | Km [20]: 325 µM | Km [21]: 542 µM
